As a reminder, the Kd is the concentration at which binding is half-saturated. The low end stands for higher affinity, the high end for lower affinity.

Kd data for 1 molecule are collected here from patent US20200148768A1.

This test deals with T1, human BTN1A1-ECD-His6 (human), Q13410.
T1 chain: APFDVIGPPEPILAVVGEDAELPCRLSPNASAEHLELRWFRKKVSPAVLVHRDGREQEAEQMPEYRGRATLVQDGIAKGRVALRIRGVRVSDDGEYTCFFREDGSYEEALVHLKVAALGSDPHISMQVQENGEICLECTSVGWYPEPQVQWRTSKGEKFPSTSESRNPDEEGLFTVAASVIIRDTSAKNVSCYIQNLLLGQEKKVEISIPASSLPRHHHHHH
Put plainly: SPR (Biacore), antibody on mIgG capture chip, BTN1A1-ECD-His 2-64 nM. As to conditions: remark: other sources report otherwise. On the technique in general: In SPR one partner is held on a chip, and binding of the other changes the refractive index at the surface.

B1: STC810 (antibody, V domains shown)
VH: EVQLQQSGPELVKPGASVKISCKASGYTFTHYNMDWVKQSHGKSLEWIGYIYPSNGGTGYNQKFKSRATLTVDKSSSTAYMELHSLTSEDSAVYYCARGAYHYGSSYAYWYFDVWGAGTTVTVSS
VL: DIQMTQTTSSLSASLGDRVTISCSASQDISNYLNWYQQKPDETVKLLISYTSSLHSGVPSRFSGSGSGTDYSLTISNLAPEDIATYYCQQSSKLPFTFGSGTELEIKRA
modifications: here or on the partner: N-glycosylated (PNGase F sensitive)
Regarding B1, the Kd is 12.4 nM.
